Assay results from publication PMC3972249.

Substrate: Nc1ncnc2c1ncn2[C@@H]1O[C@H](COP(=O)(O)OP(=O)(O)OP(=O)(O)O)[C@@H](O)[C@H]1O
Assay: KM from ATP titration in ATP:PPi exchange assay
Assay type: biochemical, Homo sapiens

| Protein | Km |
| --- | --- |
| NEDD8-activating enzyme (NAE), catalytic subunit UBA3 I310N (Homo sapiens; I310N) (protein, recombinant human UBA3 (isoform 1) in NAE complex; with NAEα (APPBP1); NEDD8) ADGEEPEKKRRRIEELLAEKMAVDGGCGDTGDWEGRWNHVKKFLERSGPFTHPDFEPSTESLQFLLDTCKVLVIGAGGLGCELLKNLALSGFRQIHVIDMDTIDVSNLNRQFLFRPKDIGRPKAEVAAEFLNDRVPNCNVVPHFNKIQDFNDTFYRQFHIIVCGLDSIIARRWINGMLISLLNYEDGVLDPSSIVPLIDGGTEGFKGNARVILPGMTACIECTLELYPPQVNFPMCTIASMPRLPEHCIEYVRMLQWPKEQPFGEGVPLDGDDPEHIQWIFQKSLERASQYNIRGVTYRLTQGVVKRINPAVASTNAVIAAVCATEVFKIATSAYIPLNNYLVFNDVDGLYTYTFEAERKENCPACSQLPQNIQFSPSAKLQEVLDYLTNSASLQMKSPAITATLEGKNRTLYLQSVTSIEERTRPNLSKTLKELGLVDGQELAVADVTTPQTVLFKLHFTS | 20 µM |
| NEDD8-activating enzyme (NAE), catalytic subunit UBA3 (NAEβ) (Homo sapiens) (protein, recombinant human UBA3 (isoform 1) in NAE complex; with NAEα (APPBP1); NEDD8) ADGEEPEKKRRRIEELLAEKMAVDGGCGDTGDWEGRWNHVKKFLERSGPFTHPDFEPSTESLQFLLDTCKVLVIGAGGLGCELLKNLALSGFRQIHVIDMDTIDVSNLNRQFLFRPKDIGRPKAEVAAEFLNDRVPNCNVVPHFNKIQDFNDTFYRQFHIIVCGLDSIIARRWINGMLISLLNYEDGVLDPSSIVPLIDGGTEGFKGNARVILPGMTACIECTLELYPPQVNFPMCTIASMPRLPEHCIEYVRMLQWPKEQPFGEGVPLDGDDPEHIQWIFQKSLERASQYNIRGVTYRLTQGVVKRIIPAVASTNAVIAAVCATEVFKIATSAYIPLNNYLVFNDVDGLYTYTFEAERKENCPACSQLPQNIQFSPSAKLQEVLDYLTNSASLQMKSPAITATLEGKNRTLYLQSVTSIEERTRPNLSKTLKELGLVDGQELAVADVTTPQTVLFKLHFTS | 80 µM |
